Holding throughout (type): biochemical
For one assay, the system named is Human DNA library. In words: Sequencing with Lightning Terminators, Human DNA library (120 cycles). As to the method:
(§1) This section generally describes how the present mutant polymerases were used for sequencing-by-synthesis, and how their performance in sequencing was measured. Sequencing was performed on a breadboard instrument, essentially as described in Hertzog D, et al., “A high-performance, low-cost approach to next-generation sequencing”, BioOptics World. 2011 Issue November/December 2011.
(§2) In this example, a variety of mutations were introduced into Pfu10 by multi-site mutagenesis or into Pfu A486L/Y546H by domain substitutions to explore an acceptable degree of reduced identity and identify other mutant Pfu polymerases containing L486, F494, H546, and W477. […] Pfu10 and Pfu10-N12 were evaluated for performance in sequencing with Lightning Terminators, as described above.

The next assay relates to E. coli DNA library. In words: Sequencing with Lightning Terminators, E. coli DNA library (120 cycles). As for the experimental part: as §1, §2
Assay [1] relates to Lightning Terminators. Put plainly: Sequencing-by-synthesis with Lightning Terminators (87 cycles). The arrangement: ARL (87 cycles) / Lead + Lag / Leading / Lagging: unit not given here. As to conditions: alternative polymerases (D141A/E143A), same protein concentrations (0.02 ug/uL in cycle 1 and 0.002 ug/uL in cycles 2-n). As for the experimental part:
as §1
In this example, mutations were introduced into the DNA polymerase of SEQ ID NO: 12 (Therminator) in an attempt to improve its capability in sequencing with 3′-OH unblocked terminators. Such mutations to Thermococcus sp. 9° N DNA polymerase are disclosed in U.S. Pat. Nos. 9,273,352; 9,677,059; 9,765,309; U.S. Pat. App. Publication No. 20160032377. The following table summarizes sequencing metrics with Lightning Terminators.
As used in this example and those that follow, “Lead+Lag” refers to dephasing errors in Sequencing by Synthesis technology caused by either reading the next base signal (Lead) or reading the previous base signal (Lag) relative to current base signals. Such errors may arise because of imperfect incoporation of reversible terminators by the polymerase.
In this example, mutant polymerases were created by introducing certain mutations (D141A/E143A/A485L) which are present in Therminator. The three mutations were introduced at the equivalent positions in JDF3 (Thermococcus sp. JDF3) and Pfu (Pyrococcus furisosus) DNA polymerases. The new mutant polymerases were then evaluated for their performance in sequencing with Lightning Terminators, as described above.

The subject of assay [2] is Lightning Terminators. Put plainly: Plate-based assay, incorporation of Lightning Terminators by control extracts. As to conditions: control extracts, FIG. 6, FIGS. 7A-7B. As for the experimental part:
In this example, additional mutant polymerases were derived from Pfu polymerase. To generate the mutants, eighty-seven codons in the Pfu pol B gene were saturated using the QuikChange Lightning Mutagenesis kit and oligonucleotides containing “NDT” codons to create R, N, D, C, G, H, I, L, F, S, Y, and V substitutions with equal frequency. In some cases, mutants missing from NDT libraries were prepared in a separate QuikChange reaction with an equimolar mixture of mutagenic oligos encoding the remaining mutations (A, T, K, Q, E, P, […], W). Thirty-two clones were randomly selected from each QuikChange library (with the exception of T267, Y403, Y410, I475, G499 and K675 libraries which generated fewer transformants). Bacterial lysates were prepared and screened for incorporation of LTA and LTC using a plate-based assay with immobilized primer-templates. A limited number of mutants were also screened for utilization of LTG and LTU (similar trends; data not shown). After washing and UV cleavage (to minimize dye quenching effects), plates were read and fluorescent signals compared to Pfu controls. The following table identifies four mutant Pfu polymerases that served as controls, which were given the arbitrary names Pfu5, Pfu1, and Pfu2, along with Pfu10 (which is discussed above).
Selected lysates, based on screening results, were submitted for sequencing, and an amino acid identification was made based on the selections. […] As shown in Example 3, K477W benefits sequencing by increasing the fraction of full-length reads.

Another assay deals with LTA-2. In words: Template-independent incorporation of LTA-2, LTU-2, LTG-2, LTC-2 to priming strands. The conditions noted are these: 18 nM polymerase, 5 uM terminators, CE2 and T7 oligonucleotides. As to the method:
The template-independent DNA synthesis reactions employed 7.5 U TdT (Promega) or 180 nM (3×over primer) Pfu26 (D141A/E143A/A486L/Y546H/K477W/L409Y) or Pfu48 (D141A/E143A/A486R/Y546H/K477W/L409Y). Varying concentrations of dATP were added to 2 μM (TdT) or 60 nM (Pfu) T7 FOR primer (6′Fam […]) (SEQ ID NO:6) in duplicate reactions containing 1×TdT buffer with CoCl2(Promega) or 1×ThermoPol buffer (NEB). Reactions were incubated for 30 min. at 37° C. (TdT) or 60° C. (Pfu), and then inactivated with heat (TdT; 10 min. at 70° C.) or EDTA (1 ul 500 uM EDTA). Reaction products were exposed to UV using a Stratalinker (15-watt bulbs, […], 10 min). Reactions were diluted in water (TdT, 1:333; Pfu, 1:10) and 1 μl (TdT) or 0.5 μl (Pfu) aliquots were brought up to 10 μl with HiDI/LIZ 120 Size Standard. Products were heated at 95° C. for 5 min., cooled on ice for 2 min., and then analyzed on an ABI 3500 capillary electrophoresis system ([…] capillary, filter set #5, assay=GE5 LIZ120).
In this example, primer extension was carried out with LTA-2 (FIG. 1F) as a Rp+Sp racemic mixture of α-thiotriphosphate, using the conditions described in Example 7.
In further experiments, single-base extension reactions (10 ul) were performed with an equimolar mixture (3 uM each) of two single-stranded oligommcleotides:
Both were labeled with Fam but distinguishable by their lengths using capillary electrophoresis. Primer extension reactions were performed using the following three Pfu mutants at a concentration of 18 nM polymerase: • Pfu10: Pfu polymerase with D141A/E143A/A486L/Y546H/K477W mutations (SEQ ID NO:2) • Pfu26: Pfu polymerase with D141A/E143A/A486L/Y546H/K477W/L409Y mutations (SEQ ID NO:4) • Pfu48: Pfu polymerase with D141A/E143A/A486R/Y546H/K477W/L409Y mutations (SEQ ID NO:5) The extension reactions also employed individual αS-modified LTs in Rp+Sp racemic mixture (namely, LTA-2, LTU-2, LTG-2, and LTC-2) at final concentrations of 5 uM. LTU-2, LTG-2, and LTC-2 are all C7 or C5-hydroxymethyl-a-tert-butyl-2-nitrobenzyl modified reversible terminators like LTA-2, with uracil, guanine, and cytosine in place of adenine. […] Reactions were incubated, stopped, UV-treated, and analyzed as described in Example 7.
Primer extensions were carried out in duplicate 25 ul reactions containing 7.5 U calf thymus TdT, 1×Promega TdT buffer (with CoCl2), varying concentrations of LTA-1 (100 uM, 50 uM, 10 uM, 5 uM, or 1 uM), and either 2 uM (FIG. 11A to 11C) or 80 nM (FIG. 11D to 11F) of a priming strand (Fam-labeled T7 F primer (6Fam […]), SEQ ID NO:8). Controls were performed without the addition of a polymerase. Primer extensions were also carried out in reactions containing the Pfu26 mutant polymerase, 60 nM of the priming strand, and various concentrations (10 μM or 5 μM or 1 μM) of LTA-1 or LTA-2.

Numbering of substitutions follows the chain as printed. Names may count otherwise.

B1: Pfu10-N12: Pfu10 variant with 15 conservative mutations plus M129A, SEQ ID NO:3 (protein)
chain: MILDVDYITEEGKPIIRLFKKENGKFRIEHDRTFRPYIYALLRDDSKIEEIKKITGERHGKIVRIVDVEKVEKKFLGKPVTVWRLYLEHPQDVPTIREKVKEHPAVIDIFEYDIPFAKRYLIDKGLVPAEGEEELKILAFAIATLYHEGEEFGKGPIIMISYADENEAKVITWKNIDLPYVEVVSSEREMIKRFVKIIKEKDPDIIVTYNGDSFDFPYLAKRAEKLGVKLTIGRDGSEPKMQRIGDMTAVEVKGRIHFDLYHVITRTINLPTYTLEAVYEAIFGKPKEKVYADEIAKAWESGENLERVAKYSMEDAKATYELGKEFLPMEIQLSRLVGQPLWDVSRSSTGNLVEWFLLRKAYERNEVAPNKPSEEEYQRRLRESYTGGFVKEPEKGLWENIVYLDFRALYPSIIITHNVSPDTLNLEGCKNYDIAPQVGHKFCKDIPGFIPSLLGHLLEERQKIKTKMKETQDPIEWILLDYRQKLIKLLANSFYGYYGYARARWYCRECAESVTAWGRKYIELTWKELEEKFGFKVLYIDTDGLHATIPGGESEEIKKKALEFVKYINSKLPGLLELEYEGFYKRGFFVTKKRYAVIDEEGKVITRGLEIVRRDWSEIAKETQARVLETILKHGDVEEAVRIVKEVIQKLANYEIPPEKLAIYEQITRPLHEYKAIGPHVAVAKKLAAKGVKIKPGMVIGYIVLRGDGPISNRAILAEEYDPKKHKYDAEYYIENQVLPAVLRILEGFGYRKEDLRYQKTRQVGLTSWLNIKKS
modifications: Mutant of Pyrococcus furiosus Polymerase
On to B1, for which, in the assay on Human DNA library (Human DNA library), the “% reads >85” value worked out at 93.3%, the “ARL (120 cycles)” value is 111.6, the FracQ30 turned out to be 0.68 and the “Lead + Lag” value is given as 1.0. For the same molecule, the “Sequencing performance with Lightning Terminators (in words)” value with Human DNA library (Human and E. coli libraries, compared with Pfu10) was “performs comparably if not slightly better than Pfu10”. Moreover, in the assay on E. coli DNA library, the “% reads >85” value worked out at 82.6%, the “ARL (120 cycles)” value is on record as 93.8, the FracQ30 came out at 0.65 and the “Lead + Lag” value is 0.9.

B2: Pfu1: Pfu DNA polymerase with D141A/E143A/A486L (protein, UniProt P61875 1-775, looked up, variant D141A E143A A486L)
DNA polymerase: MILDVDYITEEGKPVIRLFKKENGKFKIEHDRTFRPYIYALLRDDSKIEEVKKITGERHGKIVRIVDVEKVEKKFLGKPITVWKLYLEHPQDVPTIREKVREHPAVVDIFEYDIPFAKRYLIDKGLIPMEGEEELKILAFAIATLYHEGEEFGKGPIIMISYADENEAKVITWKNIDLPYVEVVSSEREMIKRFLRIIREKDPDIIVTYNGDSFDFPYLAKRAEKLGIKLTIGRDGSEPKMQRIGDMTAVEVKGRIHFDLYHVITRTINLPTYTLEAVYEAIFGKPKEKVYADEIAKAWESGENLERVAKYSMEDAKATYELGKEFLPMEIQLSRLVGQPLWDVSRSSTGNLVEWFLLRKAYERNEVAPNKPSEEEYQRRLRESYTGGFVKEPEKGLWENIVYLDFRALYPSIIITHNVSPDTLNLEGCKNYDIAPQVGHKFCKDIPGFIPSLLGHLLEERQKIKTKMKETQDPIEKILLDYRQKLIKLLANSFYGYYGYAKARWYCKECAESVTAWGRKYIELVWKELEEKFGFKVLYIDTDGLYATIPGGESEEIKKKALEFVKYINSKLPGLLELEYEGFYKRGFFVTKKRYAVIDEEGKVITRGLEIVRRDWSEIAKETQARVLETILKHGDVEEAVRIVKEVIQKLANYEIPPEKLAIYEQITRPLHEYKAIGPHVAVAKKLAAKGVKIKPGMVIGYIVLRGDGPISNRAILAEEYDPKKHKYDAEYYIENQVLPAVLRILEGFGYRKEDLRYQKTRQVGLTSWLNIKKS
In the case of B2, in the assay on Lightning Terminators [1], the “% reads >85” value worked out at 9.9%, the “ARL (87 cycles)” value was 54.9 and the “Lead + Lag” value came to 2.1. Further, in the assay with Lightning Terminators [2], the “Utilization of Lightning Terminators (in words)” value is reported as “could utilize Lightning Terminators”.

B3: Pfu48: Pfu D141A/E143A/A486R/Y546H/K477W/L409Y, SEQ ID NO:5 (protein)
chain: B2 DNA polymerase with L409Y, K477W, L486R, Y546H
modifications: Mutant of Pyrococcus furiosus Polymerase
B3: the “Template-independent incorporation of LTA-2, LTU-2, LTG-2 and LTC-2 (in words)” value in the assay with LTA-2 is “superior to Calf thymus Terminal Transferase (TdT)”.

These data come from patent US12006519B2, “Polymerase mutants and use with 3′-OH unblocked reversible terminators” (Agilent Technologies, Inc., priority 2021, dated 2024).
